# According to the DeepSol protein solubility set:
# Assay: soluble on expression in E. coli; label from the status in PepcDB or PDB records
row,Sequence,soluble on expression in E. coli
1,MGSDKIHHHHHHMFLKNAWYVAAWDHEVRTDLQQIMVLGEKICMFRTQSGDLVALEDACPHRKLPLSKGRIKGDTVECGYHGLTFNCAGTCVWAPGASGIPSNARVHAYPLAEKYGLIWIWMGNPALADPSDIFEIENYGNPDWGINRGAAMELDCNYLLMCDNLLDPTHVAWVHQSSFAAEATKDTPLHVTKTDTGIIVHRWMMDHDPAPFYKKVVEFDGNCDRLQHYEVRYPSHALVRAVFTPAGTGGPDGPLHANTFIMDSYNFMTPVSEGKTRYYWFQLRNIRPDDEALSQMMSDDVHHAFEEDRAVLNEVQIGMSSKTSPHIDLPIDGGQLRFRRQLQAMINEEAQVDAQMAE,not soluble
2,MSGKISEEAMQEQAERAEYVKNIGIEYRFGCYEEKRPESCQLLGEYMEALQQNFQAAVAIFKKNCDENSYPKSCFKYGMYMLAGKVGDDASLSKMIRPMKIACDANIPQGCRYLSLVHWNGEKDRKADSEKAERYMRRACELEDGEACWLLSTWYMGNKEKFKTNAAGEAKELDRAELGSLSRDMDKSLQFAIRACEMDIPQSCANVSRMFKLGDGVPKDLDQAKKYADRAKEIMETLRSNDTNAGFTG,not soluble
3,CSKNRKAKAKPVTRGTGAGSRPRGQNKERPPPVPNPDYEPIRKGQRDLYSGLNQRAV,soluble
4,MSLKILLLVAISCLFVACSNDKEKQQNDVNLSTEASINQSDDMNFKLNLIDGGSISVKKENAVLNFNDEDKVTLFVFFTTWCTPCIAEIPHLNKLQEKYNNDFNIVGVLLEDKSNDEIQKFIEQHKISYKVANGENNYLLAKALGGVNGIPTMFLYNKHSKLINQYLGLIPEEMLEIDIQKAILEGGSHHHHHH,soluble
5,MGSDKIHHHHHHMLKDKMIAKGAKYIQSIYQDPFIQGIIKGRLDHDVICHYLQADNIYLGKFADIYALCLAKSDNLRDKQFFLEQIDFTLNRELADGEGPHQALAAYTNRSYQDIIEKGVWYPSADHYIKHMYFHFYENGIAGALAAMSPCPWIYHQLAKKIIEENQFLNGNPFNNWITFYANDTVEELMENYFRMMDYYAQNLSKEKQADLVDAFVKSCQHERRFFQMAINQEKWED,not soluble
6,MGSDKIHHHHHHMSKLDAFIQQAVTAMPISGTSLIASLYGDALLQRGGEVWLGSVAALLEGLGFGERFVRTALFRLNKEEWLDVVRIGRRSFYRLSDKGLRLTRRAEHKIYRASAPEWDGTWLLLLSEGLEKNVLADVKKQLLWQGFGALAPSLLASPSQKLADVQSLLHEAGVAENVICFEAHSPLALSRAALRDRVEECWHLTEQNEMYEAFIALFRPLLPLLRDSEPSELTPERCFQIQLLLIHFYRRVVLKDPLLPEELLPAHWAGQTARQLCINIYQRVSPGALAFVSEKGESSVGELPAPGPLYYQRFGGLPGA,not soluble
7,MGSDKIHHHHHHMSSIIAALTYFFKEVLVFVSYVKNNAFPQPLSKEEERHYLKRMAEGDEEARNRLIEHNLRLVAHIVKKFENTREHTEDLISIGTIGLIKAIESFSEGKGTKLATYAARCIENEILMHLRALKKVKKDVSLHDPIGTDKEGNEITLIDVLQEDSEDIADSIQLKMEKKQIYEYIHVLDDREKEVIVGRFGLDLEEERTQREIAKELGISRSYVSRIEKRALMKLFHEFYKHNHGKG,not soluble
8,MGSLDLPYASSFKGGSETFLQNVFESILKTYLRKNPMAKTIWELVKSVDNEKISYDHFFFRTFKVDGYGIDSLASFFMDYGYKVGGRLDFPKKKVQVLWLSPPDVHFPDNGYGIGNGPLPRLVIAELLVEELSPESQEIIRKYLKPEGGKQAVLSSTLGSLIWEKPTSTDFNQLAKESEFAAWTLVYGYTMNHLAFAVHRLKHRFSDIKCVKEYFEENGFELNKDGGVLKVSEDSLLLQVSAMSEKLVVEFADGVTQIVPASYIEFVERLVLPQFKDMPCDEIKEFHRREGLEQASAYHIMESTRFTA,soluble
9,MGSDKIHHHHHHMINTKEDFLLLIKQIEQKSGYKKPKAFGIARLDRGQLNKNKILQASFALINYEQNFGSAAIMLEAFMQRGVEIDFNASEFVQTLKLEDIDFALSCFKPFLEEDGHQNIDLLKIIKDKFKDDEFSFVCLFEDKEPLSVESIYLKLYLLSTKKVPLRSINLNGAFGLLSNVAWSDDKPIELEYLRANEMRLKMSNQYPKIDFVDKFPRFLAHIIPEDNTRILESSKVRMGASLAAGTTIMPGASYVNFNAGTTGACMVEGRISSSAIVGEGSDVGGGASILGVLSGTSGNAISVGKACLLGANSVTGIPLGDNCIVDAGIAVLEGTKFLLKDAEELAKLNPYFNFDKEIYKGLELKGLNGLHFRQDSISGAMIVALNKKAVKLNEALH,not soluble
10,MSGLLNFGVPKGSLENATVELFRKAGWQISISSRSYFPGVDDDEMNCKLIRPQEMGKYVERGTIDAGIAGRDWVRENESDVVEVCEMVYSKVSRRPARWVLVVTRDSAVQKPEDLHGATISTELVGFTKRYFAERNIPVTVEFSWGAT,not soluble
11,MGSDKIHHHHHHMPTITAKIQIHVSDNQAESLKITTNAYRKACNWLSKHIFETKNLNQVNLNNLYYSDLRNQFRLKSQMAQSVMKTVIARYKSAKSNGHEWSLIDFKLAEYDLVWNRDYSLTKNQFSVNTLEGRLKLNYERKAMKKYFNSTWKFGTAKLVHKYKKWFLHIPMTKEYQTLDFADVNNIVGVDLGINFLATTYDSQSKTTFYNGNIVKHKRGKFKATRKQLQTRQTPSSRKKIKQIGSRENRYVTDVNHQITKALVEAYPRGTMFVLEDLTGVRSATEKVRVKNRYVSVSWAFYQFRQMLEYKAELNGQKVIVVDPKYTSQTCPKCGNIEKANRNKKLHTFKCKNCQYQSNDDRISAMNLHRKGIKHISVVTTGV,not soluble
12,MMKKRASHHLVICTLIDTLRFRLSSRKAISMNAFNKLVKHSKKISNFNHLSSIVGWDQAAVMPSGGAEARSQAMAELSVHIHGLMTQPQLADWFAEAESETLNIEQQATLREMKRQWQQATVLPEALVEAQSLAGSKCEHAWRSQRKNNDWTGFEKNWAEVVKLSQEEAQIRAEATGKTPYDAMLELYEPGTTTEQLNRVFSDVKTWLPSLIDVVIEKQSSESFIAPKGHYPAESQKALGLDVMKLLQFDFNHGRLDESVHPFCGGVPSDVRITTRYNESEFVQSLMGIVHETGHARYEQGLPKHLAGTPAGEARSMGIHESQSLFFEMQVGRSPAFIAHLAELAGKHFSAMNDPVFRVENIQKLYTRVQKDFIRVDADELTYPAHVILRFEIERDLMNGKIKHTDVPELWDQKMQAYLGLSTKGNDQNGCMQDIHWTDGSFGYFPSYTLGAMYAAQFMAAMKKTVDVDGAIRRGDLSPIFTWLSENIWSKGSLFSTDELVKQATGETLNPEHFKAHLSQRYLK,not soluble
13,DGRRMVQGLLTASLLTSIGGDLEVLASRMDLQFQRPVYTGETLVCELTVVSADPHTDGGVALVGDVAVRRVNRDDNSGQADTAAP,not soluble
14,MSHGSGLVRTTCSSGGALGPAQPSEGLLDRVYPLTHGALFKVAQMGYRLLVAGFQNCRGIDIY,not soluble
15,MSNLEIKQGENKFYIGDDENHALAEITYRFVDNNEINIDHTGVSDELGGQGVGKKLVKAVVEHARENHLKIIASCSFAKHMLEKEDSYQDVYLG,soluble
16,MAHHHHHHMADVSADSDAQVELERLNDVIDKYTCQVEHIDNLLQELEEENNSDSVSRQIAEYQSALESHPENIPAEDALEVITRLENTLKIVQRRNHLLEKENGTQNRLLEERSNVLLNATKTFDHIVDVTGWHDKFLFDAEDLRSKVADIREMSNIEAVVQKELRVAQGIIKKKEAALRQLEELVEQGKEQEAVLNNVYNDIRVKERDCSEVEMQLVRLRKSVAKTDEALAVFDLHNQNASLAYMESDRDYLRDSVAEMKSTTRRQDNVIKAQLTRQQQLQTRLDVIMKSLREMKLDKKYERNIPKSALVPSASREEPEDVSKILPESECIPVPTYRLLHKNNEMLRVIVMRKNMLVLEKNAVIEALEAGLAKYGSALITTYKEQQDLRQNKDMELIELMDDLQQQHSNYLEKLEELRLQNAALKKKMYRSTRQHAPLKGTRPMR,not soluble
17,AAPFDVTAPQEPVLALVGSDAELTCGFSPNASSEYMELLWFRQTRSTAVLLYRDGQEQEGQQMTEYRGRATLATAGLLDGRATLLIRDVRVSDQGEYRCLFKDNDDFEEAAVYLKVAAVGSDPQISMTVQENGEMELECTSSGWYPEPQVQWRTGNREMLPSTSESKKHNEEGLFTVAVSMMIRDSSIKNMSCCIQNILLGQGKEVEISLPAPFVPRLTPW,not soluble
18,MAHHHHHHMIARDPPQEGRLPDPSRLPYDDERFAEMLLEMEVNGVIDETWQDAKKARMEDVKEIANILSSLKVRDLCCVDVSEKTSNFDYMMFGTCEGARHIHLAAWAVQDADKVHRISKIKRQQTDELWEVVPVGRIVVNLMVESFREEMTLERKWAVTRSMDPLAAANAPISEGRQVKAHGLWTLTLNLQDLEDFEVDYCKDILMRQM,soluble
19,MALFFRTRDRPLRPGDPYPLGSNWIEDDDGVNFSLFSENAEKVELLLYSLTNQKYPKEIIEVKNKTGDIWHVFVPGLRPGQLYAYRVYGPYKPELGLRFNPNKVLIDPYAKAINGSVIWNDAVFGYKIGDQNQDLTYDERDSGEYVPKSVVINPYFEWDDEDFIKGKKVPLKDTVIYEVHVKGFTKLRLDLPENIRGTYEGLASEQMISYLKDLGITTVELMPVFHFIDQRFLTDKGLTNYWGYDPINFFSPECRYSSTGCLGGQVLSFKKMVNELHNAGIEVIIDVVYNHTAEGNHLGPTLSFRGIDNTAYYMLQPDNKRYYLDFTGTGNTLNLSHPRVIQMVLDSLRYWVTEMHVDGFRFDLAAALARELYSVNMLNTFFIALQQDPILSQVKLIAEPWDVGQGGYQVGNFPYQWAEWNGKYRDSIRRFWRGEALPYSEIANRLLGSPDIYLGNNKTPFASINYVTSHDGFTLEDLVSYNQKHNEANGFNNQDGMNENYSWNCGAEGPTNDQNVVICREKQKRNFMITLLVSQGTPMILGGDELSRTQRGNNNAFCQDNEITWFDWNLDERKSKFLEFVKKMIQFYRAHPAFRRERYFQGKKLFGMPLKDVTFYTLEGREVDEKTWSSPTQLVIFVLEGSVMDEINMYGERIADDSFLIILNANPNNVKVKFPKGKWELVISSYLREIKPEERIIEGEKELEIEGRTALVYRRIEL,soluble
20,MSLSWEYEYYPHSLFCHHKEREGMHYIEGAYWSAEPDLPYLHKRKILMLVEDVWLLVDDIRCQGQHEALTQFILDKDVTYQDGKINQLRLWSEVDFDLEDTIISPKYNELERSSKLTKRQFFENQMLDYTIIAHESFEIIRHSVYQTDDREVENALAFEVKNDETDKLILLLSEDIRVGEKLCLVDGTKMRGKCLVYDKINERMIRLQCEGHHHHHH,soluble
21,TAALVINANPFTLGHQYLVEKAAAENELLHLFMVSDDSSLIPFSVRKQLILAGTEHLSNICYHETGPYIISKSIFPSYFQKDQASVIESQARIDLAIFIQIAKYLGIKGRYVGEEPTSLVTGIYNQIMLQELPKQAIDCIVVPRKTYKDGPISASTVRKALKEGNEQILRELLPSTSLNYFLSPEAQPLIKKIQKADNVIHY,not soluble
